Bridge positions count the residues as written; N and C are the ends. Square brackets hold non-standard residues; d marks the D form. Ends that are not written are not given here. Pro(trans-4-F) = O=C(O)[C@@H]1C[C@@H](F)CN1; Oic = O=C(O)[C@@H]1C[C@@H]2CCCC[C@@H]2N1; Hyp = O=C(O)[C@@H]1C[C@@H](O)CN1; aIle = CC[C@@H](C)[C@H](N)C(=O)O; tBuAla = CC(C)(C)C[C@H](N)C(=O)O; aThr = C[C@H](O)[C@H](N)C(=O)O; Chg = N[C@H](C(=O)O)C1CCCCC1; αMeP = C[C@@]1(C(=O)O)CCCN1; NMeC = CN[C@@H](CS)C(=O)O; Orn = NCCC[C@H](N)C(=O)O; Abu = CC[C@H](N)C(=O)O; Aib = CC(C)(N)C(=O)O; Sar = CNCC(=O)O
T1: recombinant rat MASP1 active protease (amino acids 302-704, C-terminal His Tag) (rat, UniProt Q8CHN8 302-704)
T1 sequence: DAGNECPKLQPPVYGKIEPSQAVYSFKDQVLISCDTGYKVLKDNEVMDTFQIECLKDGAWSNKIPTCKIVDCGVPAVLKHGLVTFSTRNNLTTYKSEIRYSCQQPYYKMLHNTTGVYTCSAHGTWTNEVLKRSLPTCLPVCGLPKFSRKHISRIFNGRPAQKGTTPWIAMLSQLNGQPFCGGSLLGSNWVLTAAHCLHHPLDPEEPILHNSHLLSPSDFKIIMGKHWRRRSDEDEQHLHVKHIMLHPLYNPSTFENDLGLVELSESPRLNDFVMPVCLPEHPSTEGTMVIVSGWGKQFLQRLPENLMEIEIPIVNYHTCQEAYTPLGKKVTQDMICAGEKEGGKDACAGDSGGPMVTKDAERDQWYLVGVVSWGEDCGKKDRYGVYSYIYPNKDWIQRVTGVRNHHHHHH

B1: Example 348: GIC+SRSLPPIC+I-(Hyp)-D-OH (peptide)
peptide: GICSRSLPPICI[Hyp]D-OH
modifications: disulfide 3-11; N-terminus assumed
SMILES: CC[C@H](C)[C@H](NC(=O)CN)C(=O)N[C@H]1CSSC[C@@H](C(=O)N[C@H](C(=O)N2C[C@H](O)C[C@H]2C(=O)N[C@@H](CC(=O)O)C(=O)O)[C@@H](C)CC)NC(=O)[C@H]([C@@H](C)CC)NC(=O)[C@@H]2CCCN2C(=O)[C@@H]2CCCN2C(=O)[C@H](CC(C)C)NC(=O)[C@H](CO)NC(=O)[C@H](CCCNC(=N)N)NC(=O)[C@H](CO)NC1=O
B2: Example 286: GIC+SRSLPPIC+I-(Aib)-D-OH (peptide)
peptide: GICSRSLPPICI[Aib]D-OH
modifications: disulfide 3-11; N-terminus assumed
SMILES: CC[C@H](C)[C@H](NC(=O)CN)C(=O)N[C@H]1CSSC[C@@H](C(=O)N[C@H](C(=O)NC(C)(C)C(=O)N[C@@H](CC(=O)O)C(=O)O)[C@@H](C)CC)NC(=O)[C@H]([C@@H](C)CC)NC(=O)[C@@H]2CCCN2C(=O)[C@@H]2CCCN2C(=O)[C@H](CC(C)C)NC(=O)[C@H](CO)NC(=O)[C@H](CCCNC(=N)N)NC(=O)[C@H](CO)NC1=O
B3: Example 277: ((N-Me)G)-IC+SRSLPPIC+(allo-I)-PD-NH2 (peptide)
peptide: [Sar]ICSRSLPPIC[aIle]PD-NH2
modifications: disulfide 3-11; N-terminus assumed
SMILES: CC[C@@H](C)[C@H](NC(=O)[C@@H]1CSSC[C@H](NC(=O)[C@@H](NC(=O)CNC)[C@@H](C)CC)C(=O)N[C@@H](CO)C(=O)N[C@@H](CCCNC(=N)N)C(=O)N[C@@H](CO)C(=O)N[C@@H](CC(C)C)C(=O)N2CCC[C@H]2C(=O)N2CCC[C@H]2C(=O)N[C@@H]([C@@H](C)CC)C(=O)N1)C(=O)N1CCC[C@H]1C(=O)N[C@@H](CC(=O)O)C(N)=O
B4: Example 313: ((N-Me)G)-IC+SRSLPPIC+I-(Abu)-D-OH (peptide)
peptide: [Sar]ICSRSLPPICI[Abu]D-OH
modifications: disulfide 3-11; N-terminus assumed
SMILES: CC[C@H](NC(=O)[C@@H](NC(=O)[C@@H]1CSSC[C@H](NC(=O)[C@@H](NC(=O)CNC)[C@@H](C)CC)C(=O)N[C@@H](CO)C(=O)N[C@@H](CCCNC(=N)N)C(=O)N[C@@H](CO)C(=O)N[C@@H](CC(C)C)C(=O)N2CCC[C@H]2C(=O)N2CCC[C@H]2C(=O)N[C@@H]([C@@H](C)CC)C(=O)N1)[C@@H](C)CC)C(=O)N[C@@H](CC(=O)O)C(=O)O
B5: Example 287: ((N-Me)G)-IC+SRSLPPIC+I-((trans-4-Fluoro)P)-D-OH (peptide)
peptide: [Sar]ICSRSLPPICI[Pro(trans-4-F)]D-OH
modifications: disulfide 3-11; N-terminus assumed
SMILES: CC[C@H](C)[C@H](NC(=O)CNC)C(=O)N[C@H]1CSSC[C@@H](C(=O)N[C@H](C(=O)N2C[C@H](F)C[C@H]2C(=O)N[C@@H](CC(=O)O)C(=O)O)[C@@H](C)CC)NC(=O)[C@H]([C@@H](C)CC)NC(=O)[C@@H]2CCCN2C(=O)[C@@H]2CCCN2C(=O)[C@H](CC(C)C)NC(=O)[C@H](CO)NC(=O)[C@H](CCCNC(=N)N)NC(=O)[C@H](CO)NC1=O
B6: Example 479: (Orn)-IC+SRS-((tBu)A)-PPI-((N-Me)C)+IPD-OH (peptide)
peptide: [Orn]ICSRS[tBuAla]PPI[NMeC]IPD-OH
modifications: disulfide 3-11; N-terminus assumed
SMILES: CC[C@H](C)[C@H](NC(=O)[C@@H](N)CCCN)C(=O)N[C@H]1CSSC[C@@H](C(=O)N[C@H](C(=O)N2CCC[C@H]2C(=O)N[C@@H](CC(=O)O)C(=O)O)[C@@H](C)CC)N(C)C(=O)[C@H]([C@@H](C)CC)NC(=O)[C@@H]2CCCN2C(=O)[C@@H]2CCCN2C(=O)[C@H](CC(C)(C)C)NC(=O)[C@H](CO)NC(=O)[C@H](CCCNC(=N)N)NC(=O)[C@H](CO)NC1=O
B7: Example 282: ((N-Me)G)-IC+SRSLPP-(Chg)-C+IPD-NH2 (peptide)
peptide: [Sar]ICSRSLPP[Chg]CIPD-NH2
modifications: disulfide 3-11; N-terminus assumed
SMILES: CC[C@H](C)[C@H](NC(=O)CNC)C(=O)N[C@H]1CSSC[C@@H](C(=O)N[C@H](C(=O)N2CCC[C@H]2C(=O)N[C@@H](CC(=O)O)C(N)=O)[C@@H](C)CC)NC(=O)[C@H](C2CCCCC2)NC(=O)[C@@H]2CCCN2C(=O)[C@@H]2CCCN2C(=O)[C@H](CC(C)C)NC(=O)[C@H](CO)NC(=O)[C@H](CCCNC(=N)N)NC(=O)[C@H](CO)NC1=O
B8: Example 367: ((N-Me)G)-IC+SRSLPPIC+I-(Oic)-D-OH (peptide)
peptide: [Sar]ICSRSLPPICI[Oic]D-OH
modifications: disulfide 3-11; N-terminus assumed
SMILES: CC[C@H](C)[C@H](NC(=O)CNC)C(=O)N[C@H]1CSSC[C@@H](C(=O)N[C@H](C(=O)N2[C@H](C(=O)N[C@@H](CC(=O)O)C(=O)O)C[C@@H]3CCCC[C@@H]32)[C@@H](C)CC)NC(=O)[C@H]([C@@H](C)CC)NC(=O)[C@@H]2CCCN2C(=O)[C@@H]2CCCN2C(=O)[C@H](CC(C)C)NC(=O)[C@H](CO)NC(=O)[C@H](CCCNC(=N)N)NC(=O)[C@H](CO)NC1=O
B9: Example 278: AIC+SR-(allo-T)-LPPIC+IPD-NH2 (peptide)
peptide: AICSR[aThr]LPPICIPD-NH2
modifications: disulfide 3-11; N-terminus assumed
SMILES: CC[C@H](C)[C@H](NC(=O)[C@H](C)N)C(=O)N[C@H]1CSSC[C@@H](C(=O)N[C@H](C(=O)N2CCC[C@H]2C(=O)N[C@@H](CC(=O)O)C(N)=O)[C@@H](C)CC)NC(=O)[C@H]([C@@H](C)CC)NC(=O)[C@@H]2CCCN2C(=O)[C@@H]2CCCN2C(=O)[C@H](CC(C)C)NC(=O)[C@H]([C@H](C)O)NC(=O)[C@H](CCCNC(=N)N)NC(=O)[C@H](CO)NC1=O
B10: Example 289: ((N-Me)G)-IC+SRSLPP-IC+I-((2-Me)P)-D-OH (peptide)
peptide: [Sar]ICSRSLPPICI[αMeP]D-OH
modifications: disulfide 3-11; N-terminus assumed
SMILES: CC[C@H](C)[C@H](NC(=O)CNC)C(=O)N[C@H]1CSSC[C@@H](C(=O)N[C@H](C(=O)N2CCC[C@@]2(C)C(=O)N[C@@H](CC(=O)O)C(=O)O)[C@@H](C)CC)NC(=O)[C@H]([C@@H](C)CC)NC(=O)[C@@H]2CCCN2C(=O)[C@@H]2CCCN2C(=O)[C@H](CC(C)C)NC(=O)[C@H](CO)NC(=O)[C@H](CCCNC(=N)N)NC(=O)[C@H](CO)NC1=O

Molecular target: T1, recombinant rat MASP1 active protease …
Assay: cell-based or functional assay

rat MASP1 IC50 [nM] | Binder
350 | B1
230 | B2
190 | B3
220 | B4
250 | B5
84 | B6
470 | B7
120 | B8
83 | B9
180 | B10
